Data published in article PMC2675908, “Direct Observation of ATP-Induced Conformational Changes in Single P2X4 Receptors” (PLOS Biology, 2009).

Biological target: the molecule itself
Experiment: native gel or EMSA; native PAGE, 4%-13% acrylamide gradient gel, sample buffer with 1% deoxycholate, silver staining; purified P2X4R

B1: rat P2X4 receptor (receptor, UniProt P51577 1-388, looked up)
chain: MAGCCSVLGSFLFEYDTPRIVLIRSRKVGLMNRAVQLLILAYVIGWVFVWEKGYQETDSVVSSVTTKAKGVAVTNTSQLGFRIWDVADYVIPAQEENSLFIMTNMIVTVNQTQSTCPEIPDKTSICNSDADCTPGSVDTHSSGVATGRCVPFNESVKTCEVAAWCPVENDVGVPTPAFLKAAENFTLLVKNNIWYPKFNFSKRNILPNITTSYLKSCIYNAQTDPFCPIFRLGTIVEDAGHSFQEMAVEGGIMGIQIKWDCNLDRAASLCLPRYSFRRLDTRDLEHNVSPGYNFRFAKYYRDLAGKEQRTLTKAYGIRFDIIVFGKAGKFDIIPTMINVGSGLALLGVATVLCDVIVLYCMKKKYYYRDKKYKYVEDYEQGLSGEMNQ
notes: P2X4 receptor (P2X purinoceptor 4), rat; cDNA encoding rat P2X4R subcloned into pcDNA3.1; Homotrimer by native PAGE (about 150 kDa; monomer about 50 kDa in SDS-PAGE) and by AFM; No tag is mentioned; 1321N1 cells are said not to express P2XRs of their own; also called P2X4Rs; source: human 1321N1 astrocytoma cells, stably transfected (pcDNA3.1)
stoichiometry N: 3
